According to the supplement of paper PMC9112550, “Optimization of the antimicrobial peptide Bac7 by deep mutational scanning” (BMC Biology, 2022):

system: Escherichia coli TOP10; test: shrunken log2 fold change of peptide-encoding DNA abundance (4.5 h post-induction vs induction); higher = less antimicrobial activity (less host growth inhibition); details: time post-induction: 4.5 h; library: site-saturation at positions 5, 18, 19, 20
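Also: peptides expressed intracellularly from a pBAD plasmid library in pooled LB shake-flask culture, induced with 0.3% L-arabinose, DNA abundance read by NGS, three biological replicates, DESeq2 with apeglm shrinkage.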

Sequence | shrunken log2 fold change
RRIRPRPPRLPRPRPRPYNNPRP | -1.25
RRIRPRPPRLPRPRPRPYPMPRP | -0.0996
RRIRPRPPRLPRPRPRPYQSPRP | -0.194
RRIRPRPPRLPRPRPRPYQTPRP | 0.0331
RRIRPRPPRLPRPRPRPYQYPRP | -0.292
RRIRPRPPRLPRPRPRPYRQPRP | -0.0384
RRIRPRPPRLPRPRPRPYTYPRP | -0.0956
RRIRPRPPRLPRPRPRPYVMPRP | -0.706
RRIRPRPPRLPRPRPRPYWEPRP | -0.0429
RRIRPRPPRLPRPRPRPYWGPRP | -0.201
RRIRPRPPRLPRPRPRPYWIPRP | -0.509
RRIRQRPPRLPRPRPRPAAFPRP | 0.39
RRIRQRPPRLPRPRPRPAEWPRP | -0.357
RRIRQRPPRLPRPRPRPAFLPRP | -0.0387
RRIRQRPPRLPRPRPRPAGSPRP | 0.0285
RRIRQRPPRLPRPRPRPAHPPRP | 0.181
RRIRQRPPRLPRPRPRPAHRPRP | 0.151
RRIRQRPPRLPRPRPRPAIGPRP | 0.216
RRIRQRPPRLPRPRPRPAKKPRP | -0.0522
RRIRQRPPRLPRPRPRPAKNPRP | -0.0935
RRIRQRPPRLPRPRPRPALCPRP | 0.171
RRIRQRPPRLPRPRPRPALMPRP | 0.0376
RRIRQRPPRLPRPRPRPALSPRP | 0.217
RRIRQRPPRLPRPRPRPAMPPRP | 0.306
RRIRQRPPRLPRPRPRPAPAPRP | 0.707

Sequence | shrunken log2 fold change
RRIRQRPPRLPRPRPRPAPQPRP | 0.522
RRIRQRPPRLPRPRPRPAPSPRP | 0.492
RRIRQRPPRLPRPRPRPAQSPRP | 0.29
RRIRQRPPRLPRPRPRPASEPRP | -0.019
RRIRQRPPRLPRPRPRPASIPRP | -0.0578
RRIRQRPPRLPRPRPRPATMPRP | -0.0699
RRIRQRPPRLPRPRPRPATRPRP | 0.616
RRIRQRPPRLPRPRPRPAVDPRP | 0.963
RRIRQRPPRLPRPRPRPAVQPRP | 0.013
RRIRQRPPRLPRPRPRPAWEPRP | 0.245
RRIRQRPPRLPRPRPRPCDGPRP | -0.26
RRIRQRPPRLPRPRPRPCEFPRP | -0.311
RRIRQRPPRLPRPRPRPCEGPRP | -0.000921
RRIRQRPPRLPRPRPRPCEPPRP | -0.0332
RRIRQRPPRLPRPRPRPCEWPRP | 0.000996
RRIRQRPPRLPRPRPRPCFCPRP | -0.0837
RRIRQRPPRLPRPRPRPCFSPRP | -0.0347
RRIRQRPPRLPRPRPRPCHNPRP | -0.0554
RRIRQRPPRLPRPRPRPCHPPRP | -0.032
RRIRQRPPRLPRPRPRPCHTPRP | -0.207
RRIRQRPPRLPRPRPRPCIEPRP | 0.015
RRIRQRPPRLPRPRPRPCIFPRP | -0.142
RRIRQRPPRLPRPRPRPCKLPRP | -0.167
RRIRQRPPRLPRPRPRPCKPPRP | -0.207
RRIRQRPPRLPRPRPRPCLGPRP | 0.172

Sequence | shrunken log2 fold change
RRIRQRPPRLPRPRPRPCLMPRP | -0.0141
RRIRQRPPRLPRPRPRPCLYPRP | -0.29
RRIRQRPPRLPRPRPRPCMMPRP | -0.498
RRIRQRPPRLPRPRPRPCMNPRP | -0.0959
RRIRQRPPRLPRPRPRPCPPPRP | 0.00708
RRIRQRPPRLPRPRPRPCQDPRP | 0.0207
RRIRQRPPRLPRPRPRPCQQPRP | -0.0108
RRIRQRPPRLPRPRPRPCRAPRP | 0.106
RRIRQRPPRLPRPRPRPCRFPRP | 0.00388
RRIRQRPPRLPRPRPRPCTNPRP | -0.359
RRIRQRPPRLPRPRPRPCVHPRP | -0.629
RRIRQRPPRLPRPRPRPCVSPRP | -0.107
RRIRQRPPRLPRPRPRPCWGPRP | 0.0281
RRIRQRPPRLPRPRPRPCYEPRP | -0.0157
RRIRQRPPRLPRPRPRPCYIPRP | -0.191
RRIRQRPPRLPRPRPRPCYVPRP | -0.0541
RRIRQRPPRLPRPRPRPCYWPRP | -0.229
RRIRQRPPRLPRPRPRPDAHPRP | -0.0825
RRIRQRPPRLPRPRPRPDAPPRP | 0.655
RRIRQRPPRLPRPRPRPDCEPRP | -0.00144
RRIRQRPPRLPRPRPRPDCSPRP | 0.0489
RRIRQRPPRLPRPRPRPDDYPRP | 0.0372
RRIRQRPPRLPRPRPRPDFEPRP | 0.0209
RRIRQRPPRLPRPRPRPDFFPRP | 0.00508
RRIRQRPPRLPRPRPRPDGMPRP | -0.199

Sequence | shrunken log2 fold change
RRIRQRPPRLPRPRPRPDHAPRP | 0.014
RRIRQRPPRLPRPRPRPDHLPRP | 0.0112
RRIRQRPPRLPRPRPRPDKSPRP | -0.0319
RRIRQRPPRLPRPRPRPDLCPRP | -0.00719
RRIRQRPPRLPRPRPRPDLLPRP | 0.126
RRIRQRPPRLPRPRPRPDLQPRP | -0.0429
RRIRQRPPRLPRPRPRPDNYPRP | -0.194
RRIRQRPPRLPRPRPRPDPSPRP | -0.132
RRIRQRPPRLPRPRPRPDRMPRP | -0.0981
RRIRQRPPRLPRPRPRPDSTPRP | 0.139
RRIRQRPPRLPRPRPRPDTCPRP | 0.0121
RRIRQRPPRLPRPRPRPDVEPRP | -0.0335
RRIRQRPPRLPRPRPRPDWHPRP | -0.038
RRIRQRPPRLPRPRPRPDWNPRP | -0.189
RRIRQRPPRLPRPRPRPDYFPRP | -0.198
RRIRQRPPRLPRPRPRPEATPRP | 0.353
RRIRQRPPRLPRPRPRPECLPRP | -0.21
RRIRQRPPRLPRPRPRPEDPPRP | -0.00697
RRIRQRPPRLPRPRPRPEDQPRP | 0.0199
RRIRQRPPRLPRPRPRPEDTPRP | -0.0122
RRIRQRPPRLPRPRPRPEEGPRP | -0.0102
RRIRQRPPRLPRPRPRPEELPRP | -0.0362
RRIRQRPPRLPRPRPRPEFSPRP | 0.362
RRIRQRPPRLPRPRPRPEGNPRP | -0.00965
RRIRQRPPRLPRPRPRPEGSPRP | -0.00794

Sequence | shrunken log2 fold change
RRIRQRPPRLPRPRPRPEKIPRP | 2.55
RRIRQRPPRLPRPRPRPEKWPRP | -0.191
RRIRQRPPRLPRPRPRPELWPRP | 0.27
RRIRQRPPRLPRPRPRPENGPRP | -0.0161
RRIRQRPPRLPRPRPRPENLPRP | -0.0164
RRIRQRPPRLPRPRPRPESCPRP | -0.0209
RRIRQRPPRLPRPRPRPESRPRP | -0.00904
RRIRQRPPRLPRPRPRPESSPRP | -0.0458
RRIRQRPPRLPRPRPRPETDPRP | -0.167
RRIRQRPPRLPRPRPRPETTPRP | 0.0178
RRIRQRPPRLPRPRPRPEVDPRP | 0.0316
RRIRQRPPRLPRPRPRPEVLPRP | 0.0411
RRIRQRPPRLPRPRPRPEVSPRP | 0.116
RRIRQRPPRLPRPRPRPEWNPRP | -0.175
RRIRQRPPRLPRPRPRPEYYPRP | -0.306
RRIRQRPPRLPRPRPRPFALPRP | -0.103
RRIRQRPPRLPRPRPRPFAQPRP | -0.0906
RRIRQRPPRLPRPRPRPFFCPRP | 0.111
RRIRQRPPRLPRPRPRPFGFPRP | -0.233
RRIRQRPPRLPRPRPRPFGQPRP | -0.0598
RRIRQRPPRLPRPRPRPFGYPRP | -0.148
RRIRQRPPRLPRPRPRPFHPPRP | -0.197
RRIRQRPPRLPRPRPRPFIPPRP | -0.395
RRIRQRPPRLPRPRPRPFIWPRP | -0.357
RRIRQRPPRLPRPRPRPFKEPRP | 0.343

Sequence | shrunken log2 fold change
RRIRQRPPRLPRPRPRPFMHPRP | -0.0117
RRIRQRPPRLPRPRPRPFPGPRP | 0.115
RRIRQRPPRLPRPRPRPFQHPRP | -0.117
RRIRQRPPRLPRPRPRPFREPRP | -0.0101
RRIRQRPPRLPRPRPRPFRLPRP | -0.00192
RRIRQRPPRLPRPRPRPFRQPRP | -0.148
RRIRQRPPRLPRPRPRPFSDPRP | -0.00196
RRIRQRPPRLPRPRPRPFTPPRP | -0.388
RRIRQRPPRLPRPRPRPFVAPRP | 0.0106
RRIRQRPPRLPRPRPRPFYFPRP | -0.697
RRIRQRPPRLPRPRPRPFYSPRP | -0.174
RRIRQRPPRLPRPRPRPFYVPRP | -0.484
RRIRQRPPRLPRPRPRPGCHPRP | -0.11
RRIRQRPPRLPRPRPRPGCNPRP | -0.0136
RRIRQRPPRLPRPRPRPGCVPRP | 0.269
RRIRQRPPRLPRPRPRPGDEPRP | 0.021
RRIRQRPPRLPRPRPRPGDKPRP | -0.187
RRIRQRPPRLPRPRPRPGDWPRP | 0.866
RRIRQRPPRLPRPRPRPGDYPRP | -0.17
RRIRQRPPRLPRPRPRPGEDPRP | -0.0999
RRIRQRPPRLPRPRPRPGFAPRP | 0.249
RRIRQRPPRLPRPRPRPGFQPRP | 0.00598
RRIRQRPPRLPRPRPRPGGKPRP | -0.0313
RRIRQRPPRLPRPRPRPGHRPRP | 0.0349
RRIRQRPPRLPRPRPRPGIMPRP | -0.0424
